{"source": "paper PMC7835385", "key": {"[1]": {"molecular_target": "myosin-7a heavy chain (Drosophila), FLAG-tagged, co-expressed with light chains (Drosophila) (UniProt Q9V3Z6)", "test": "co-purification (FLAG affinity chromatography) with SDS-PAGE densitometry; heavy chain and light chains co-expressed in Sf9; heavy chain captured by its FLAG tag; 150 mM NaCl, 2 mM ATP washes"}, "[2]": {"molecular_target": "GFP-myosin-7a holoenzyme (full-length, Drosophila) (Drosophila) (UniProt Q9V3Z6)", "test": "BLI; Octet RED96; GFP-myosin-7a held by biotinylated GFP antibody on streptavidin sensors; 0-25 nM M7BP in solution; 150 mM NaCl, 2 mM MgCl2, 0.1 mM EGTA, 10 mM MOPS, 1% BSA, pH 7.2; 30 C; no actin"}, "[3]": {"molecular_target": "full-length myosin-7a holoenzyme (Drosophila), FLAG-tagged (Drosophila) (UniProt Q9V3Z6)", "test": "single-molecule mass photometry; 20 nM myosin-7a or M7BP alone, or 20 nM M7BP with 10 nM myosin-7a; 150 mM NaCl, 2 mM MgCl2, 0.1 mM EGTA, 10 mM MOPS, pH 7.2; about 24 C; no actin"}, "[4]": {"molecular_target": "skeletal muscle actin, filamentous (F-actin) (rabbit) (UniProt P68135)"}, "[5]": {"molecular_target": "GFP-myosin-7a holoenzyme (full-length, Drosophila) (Drosophila) (UniProt Q9V3Z6)", "test": "single-molecule TIRF motility assay; 20 nM myosin-7a with 20 nM M7BP on surface-immobilised phalloidin-labelled actin filaments; 150 mM KCl, 20 mM MOPS, 5 mM MgCl2, 0.1 mM EGTA, 2 mM ATP, pH 7.4; co-movement and fluorophore counting of moving puncta"}}}
{"substance": "Drosophila calmodulin (from UniProt P62152 1-149) (natural protein)", "values": [{"measurement": "stoichiometric ratio of strongly bound calmodulin to ELC/Mlc-c on the heavy chain", "setting": "[1]", "result": 4}]}
{"substance": "M7BP (myosin-7a binding protein), protein isoform C of CG43340, full length (natural protein)", "values": [{"measurement": "Kd", "setting": "[2]", "result": 6, "unit": "nM"}, {"measurement": "stoichiometry N", "setting": "[3]", "result": 1}, {"measurement": "decrease in actin gliding velocity over surface-bound myosin-7a after infusion of 500 nM M7BP, 150 mM KCl", "setting": "[4]", "result": 50, "unit": "%"}]}
{"substance": "M7BP-mCherry (natural protein)", "values": [{"measurement": "stoichiometry N", "setting": "[5]", "result": 1}]}
